Experimental data as given in patent US20220064224A1 (NOVOBIND LIVESTOCK THERAPEUTICS, published 2022).
Substitutions are numbered along the chain they refer to.

Target: Canine Parvovirus Type 2 (CPV2) (Canine parvovirus type 2)
Assay: cell-based or functional assay

B1: NBX0428 (VHH)
VHH: QVQLQESGGGLVQAGGSLRLSCAASGSTSSINHIAWYRQAPGKQREWVATITSGGGSTYYTNSVKGRFTISRDNAKNTVYLQMNNLKPEDTAVYYCKANQAAGNKDYWGQGTQVTVSS
Invasion reduced by >50% at 5 µM NBX: > 50%

B2: NBX0414 (VHH)
VHH: QVQLQESGGGLVQAGGSLRLSCRASGRTFSSSSMGWFRQAPGKERDFVAAISWDGASTRYADSVKGRFTISRDNAKNTVYLQMNSLKPEDTAVYYCAASTMDFIVLLTKWYPYWGQGTQVTVSS
Invasion reduced by >50% at 5 µM NBX: > 50%

B3: NBX0416 (VHH)
VHH: B2 VHH with R23A, S52N, D54S, A56D, N77S
Invasion reduced by >50% at 5 µM NBX: ≤ 50%

B4: NBX0411 (VHH)
VHH: QVQLQESGGGLVQPGGSLRLSCAVSGLAFGRVAMAWYRQAPGKERELVARISSGGYTNYADSAKGRFTISRDNVKNLVYLQMNSLKFDDTAVYYCNSGWSGDYWGKGTLVTVSS
Invasion reduced by >50% at 5 µM NBX: > 50%

B5: NBX0421 (VHH)
VHH: B4 VHH with E6Q, V32Y, S53N, L77T, Q81E, D102N
Invasion reduced by >50% at 5 µM NBX: > 50%

B6: NBX0430 (VHH)
VHH: QVQLQQSGGGLVQAGGSLRLSCAASGLTFGSPAMAWYRQAPGKEREWVATISRGGSTYYADSVKGRFTISRDNAKNTSYLQMNSLKPEETAVYYCAAGLSSMRYDYWGQGTQVTVSS
Invasion reduced by >50% at 5 µM NBX: ≤ 50%

B7: NBX0426 (VHH)
VHH: QVQLQESGGGLVQPGGSLRLSCAASGIGDRPYVMAWHRQAPGKQRELVATITRDGYTNYADTVKGRFVVSRDNAQNTVYLQMNYLKPADTAVYYCRAYNAYLNLGYWGQGTQVTVST
Invasion reduced by >50% at 5 µM NBX: > 50%

B8: NBX0415 (VHH)
VHH: QVQLQESGGGLVQAGGSLRLSCAASGRTFSSYAMGWFRQAPGKEREYVAAINRFGGTYYADFVKGRFTISRDNAKNTVYLQMNSLKPEDTAVYYCAASRILGLTTAREDYNYWGQGTQVTVSS
Invasion reduced by >50% at 5 µM NBX: ≤ 50%

B9: NBX0429 (VHH)
VHH: B8 VHH with E6Q, R99G, T104S
Invasion reduced by >50% at 5 µM NBX: ≤ 50%

B10: NBX0431 (VHH)
VHH: B8 VHH with E6Q, A50G, T104S
Invasion reduced by >50% at 5 µM NBX: ≤ 50%

B11: NBX0412 (VHH)
VHH: B8 VHH with A24V, G55S, T104S
Invasion reduced by >50% at 5 µM NBX: ≤ 50%

B12: NBX0417 (VHH)
VHH: QVQLQESGGGLVQPGGSLRLSCAASGSIFSINVMAWYRQAPGKEREYVASITRGGGDYYANSVKGRFTISRDNAKNAVYLQMNSLKPEDTAVYECNAQISQTISGDYRNYWGQGTQVTVSS
Invasion reduced by >50% at 5 µM NBX: ≤ 50%
